Reference: US20040006009A1

Target: MASP (MBL-associated serine proteases) purified from an MBL deficient individual
Assay: cell-based or functional assay

- C4-activation compared to the reference N105-11A (EC50 = 100%); PE0407 5 mg/ml with 1 mM CaCl2, T = 2 months at +4° C.: 92%
- C4-activation compared to the reference N105-11A (EC50 = 100%); PE0407 5 mg/ml with 1 mM CaCl2, T = 2 months at +37° C.: 94%
- C4-activation compared to the reference N105-11A (EC50 = 100%); PE0407 5 mg/ml with 1 mM CaCl2, T = 2 months at -20° C.: 91%
- C4-activation compared to the reference N105-11A (EC50 = 100%); control 5 mg/ml without calcium, T = 2 months at 37° C.: 19%
- C4-activation, EC50% relative to a MBL standard; PE0305 10 mg/ml, T = 0 months (% relative to MBL standard): 94
- C4-activation, EC50% relative to a MBL standard; PE0305 10 mg/ml, T = 2½ months at +4° C. (% relative to MBL standard): 78
- C4-activation, EC50% relative to a MBL standard; PE0305 10 mg/ml, T = 2½ months at +37° C. (% relative to MBL standard): 36
- C4-activation, EC50% relative to a MBL standard; PE0305 10 mg/ml, T = 2½ months at -20° C. (% relative to MBL standard): 81
- C4-activation, EC50% relative to a MBL standard; PE0305 10 mg/ml, T = 5 months at +4° C. (% relative to MBL standard): 80.3
- C4-activation, EC50% relative to a MBL standard; PE0305 10 mg/ml, T = 5 months at +37° C. (% relative to MBL standard): 14.3
- C4-activation, EC50% relative to a MBL standard; PE0305 10 mg/ml, T = 5 months at -20° C. (% relative to MBL standard): 81.7
- C4 activation assay, EC50 relative to reference (100%); PE0238 1 mg/ml, 12 months at +4 degree (% of reference): 105
- C4 activation assay, EC50 relative to reference (100%); PE0238 1 mg/ml, 12 months at -20 degree (% of reference): 104
Substance: recombinant human mannan binding lectin (MBL) (from UniProt P11226 21-248)
